Experimental data: patent US20260028422A1 (CONCEPT TO MEDICINE BIOTECH, published 2026)
Like-named read-outs stand apart in the source and are kept apart here.

Experiments:
[1] = target: T1, Human MerTK-mouse Fc fusion protein (human, UniProt Q12866 21-499, limits assumed); assay: FACS blocking: binding of human MerTK-mouse Fc to Jurkat cells overexpressing human Gas6, MFI (AF488)
T1 construct: also called hMerTK; Human MerTK-mouse Fe fusion protein
T1 sequence (looked up): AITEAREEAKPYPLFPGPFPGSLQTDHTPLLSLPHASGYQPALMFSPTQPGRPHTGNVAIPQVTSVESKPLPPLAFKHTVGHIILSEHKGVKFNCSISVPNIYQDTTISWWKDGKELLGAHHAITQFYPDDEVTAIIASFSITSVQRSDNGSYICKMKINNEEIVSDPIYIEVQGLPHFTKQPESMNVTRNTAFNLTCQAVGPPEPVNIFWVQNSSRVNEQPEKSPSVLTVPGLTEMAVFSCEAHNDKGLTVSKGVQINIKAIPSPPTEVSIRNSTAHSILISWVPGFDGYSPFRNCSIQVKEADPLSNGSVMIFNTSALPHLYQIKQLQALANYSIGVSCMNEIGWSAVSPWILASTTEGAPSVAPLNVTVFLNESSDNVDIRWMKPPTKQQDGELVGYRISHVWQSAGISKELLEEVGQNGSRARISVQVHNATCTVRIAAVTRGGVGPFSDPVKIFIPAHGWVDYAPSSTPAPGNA
Procedure: (§1) To evaluate the blocking effects of anti-hMerTK mAbs on hMerTK binding to its ligand hGas6, a receptor blocking assay was set-up. Briefly, Jurkat cells engineered to overexpress human Gas6 were added to the 96-well microplates at a density of 5×10⁴ cells per well. Human MerTK-mouse Fe fusion protein (50 μL/well, […]) and the MerTK chimeric antibodies with a 3-fold serial dilution starting from 120 nM at a volume of 50 μL were added to the 96-well plates and incubated at 4° C. for 30 mins. After washing with FACS buffer, the plates were incubated with diluted Alex Fluor 488 conjugated goat anti-mouse IgG antibody for 30 mins at 4′C. After washing, the plates were analyzed by QuantAnalyzer 16.

[2] = target: T1, Human MerTK-mouse Fc fusion protein; assay: as above; remark: listed apart in the source
Procedure: as §1

[3] = target: T2, human MerTK expressed on cells (human, UniProt Q12866 21-999); assay: FACS on CHO-K1 cells overexpressing human MerTK, MFI (PE)
T2 construct: whole, on cells; also called CHO-K1-hMerTK; CHO-K1-MerTK
T2 sequence (looked up): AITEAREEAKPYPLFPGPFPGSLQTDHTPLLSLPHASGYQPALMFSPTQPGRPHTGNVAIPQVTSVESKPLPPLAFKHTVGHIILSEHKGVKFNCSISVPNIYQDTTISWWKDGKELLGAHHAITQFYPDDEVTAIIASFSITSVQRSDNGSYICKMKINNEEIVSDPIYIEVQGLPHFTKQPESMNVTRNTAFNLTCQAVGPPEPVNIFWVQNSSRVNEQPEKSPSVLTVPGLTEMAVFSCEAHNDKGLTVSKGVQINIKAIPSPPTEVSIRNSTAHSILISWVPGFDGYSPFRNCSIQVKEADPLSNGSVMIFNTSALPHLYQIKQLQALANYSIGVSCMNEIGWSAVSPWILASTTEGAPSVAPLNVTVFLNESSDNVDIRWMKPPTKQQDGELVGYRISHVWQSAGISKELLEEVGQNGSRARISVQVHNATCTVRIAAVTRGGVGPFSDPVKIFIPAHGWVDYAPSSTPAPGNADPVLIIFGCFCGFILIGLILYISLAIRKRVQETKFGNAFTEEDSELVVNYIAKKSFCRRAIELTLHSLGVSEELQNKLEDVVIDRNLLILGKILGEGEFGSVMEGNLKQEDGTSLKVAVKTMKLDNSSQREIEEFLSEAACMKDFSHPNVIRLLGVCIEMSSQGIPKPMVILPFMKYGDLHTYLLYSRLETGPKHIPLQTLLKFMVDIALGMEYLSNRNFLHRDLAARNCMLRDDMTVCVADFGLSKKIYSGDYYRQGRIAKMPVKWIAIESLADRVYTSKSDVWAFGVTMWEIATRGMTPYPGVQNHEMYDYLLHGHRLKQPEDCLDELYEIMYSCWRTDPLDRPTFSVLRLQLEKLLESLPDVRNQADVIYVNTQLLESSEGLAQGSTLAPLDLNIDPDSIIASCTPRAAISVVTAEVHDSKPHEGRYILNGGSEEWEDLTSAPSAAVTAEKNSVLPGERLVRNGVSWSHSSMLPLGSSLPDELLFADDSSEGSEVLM
Procedure: (§2) To evaluate the binding property to the antigen expressed on the cells, the chimeric monoclonal antibodies were analyzed for their binding to human MerTK overexpressed on CHO-K1 cells by FACS. Briefly, human MerTK overexpressing CHO-K1 (CHO-K1-MerTK) cells were firstly incubated with 5-fold serially diluted mAbs starting at 20 nM at 4° C. for 1 hour. After washing with FACS buffer, the PE conjugated anti-human IgG-Fc secondary antibody was added to each well and incubated at 4° C., for 30 mins. The mean fluorescence intensity (MFI) of PE were evaluated by QuantAnalyzer 16.

[4] = target: T2, human MerTK expressed on cells; assay: as above; remark: listed apart in the source
Procedure: as §2

IC50 [1]: 0.856 nM
IC50 [2]: 0.836 nM
EC50 [3]: 0.17 nM
Top [3]: 5920 MFI (PE)
EC50 [4]: 0.16 nM
Top [4]: 4950 MFI (PE)
B1: h13B4.v16 benchmark antibody (antibody, V domains shown)
VH: EVQLVESGEGLVQPGGSLRLSCAASGFSLSSYAMGWVRQAPGKGLEYVGIINSYGNTYYANWAKGRFTISRDNSKNTVYLQMGSLRAEDMAVYYCARDPGVSSNLWGRGTLVTVSS
VL: DIQMTQSPSTLSASVGDRVTITCQASQNIYSGLAWYQQKPGKAPKLLIYGASKLASGVPSRFSGSGSGTEFTLTISSLQPDDFATYYCQATYYSSNSVAFGGGTKVEIK
